Laboratory results as given in the RNAGym collection of RNA variant scans (doi:10.1101/gr.219683.116).

B1: mRNA-splicing (parent)
chain: AGUUGCUGCUGGGAGCUCCAGCACAGUGAAAUGGACAGAAGGGCAGAGCAA

Variants of: B1
Test: exon inclusion enrichment index; higher = more inclusion; WT1 exon 5 minigene, HEK293

| Variant | exon inclusion enrichment index |
| --- | --- |
| G5C C6G U7C U10C C19U A20G | 1.14 |
| G5C C6G U7C U10C C19U A20C | 3.09 |
| G5C C6G U7C U10C C19U A20U | 1.48 |
| G5C C6G U7C U10C A30U A31U | 3.18 |
| G5C C6G U7C U10C A30U A31G | 3.75 |
| G5C C6G U7C U10C A30U A31C | 3.11 |
| G5C C6G U7C U10C A31C | 3.8 |
| G5C C6G U7C U10C A31G | 3.79 |
| G5C C6G U7C U10C A31U | 3.18 |
| G5C C6G U7C U10C C36U | 1.33 |
| G5C C6G U7C U10C C36G | 3.17 |
| G5C C6G U7C U10C C36A | 2.93 |
| G5C C6G U7C U10C C24U A25G | 4.57 |
| G5C C6G U7C U10C C24U A25C | 4.56 |
| G5C C6G U7C U10C C24U A25U | 3.01 |
| G5C C6G U7C U10C C19A | 2.65 |
| G5C C6G U7C U10C C19U | 0.492 |
| G5C C6G U7C U10C C19G | 3.72 |
| G5C C6G U7C U10C A14C G15U | 1.33 |
| G5C C6G U7C U10C A14C G15C | 1.16 |
| G5C C6G U7C U10C C18G | 3.71 |
| G5C C6G U7C U10C C18U | 3.14 |
| G5C C6G U7C U10C C18A | 3.25 |
| G5C C6G U7C U10C C24A A25U | 2.85 |

| Variant | exon inclusion enrichment index |
| --- | --- |
| G5C C6G U7C U10C C24A A25G | 3.65 |
| G5C C6G U7C U10C C24A A25C | 4.48 |
| G5C C6G U7C U10C G11C G12A | 1.1 |
| G5C C6G U7C U10C G11C G12C | 1.04 |
| G5C C6G U7C U10C G11C G12U | 0.699 |
| G5C C6G U7C U10C G33U G34C | 1.15 |
| G5C C6G U7C U10C G33U G34U | 0.875 |
| G5C C6G U7C U10C G33U G34A | 0.696 |
| G5C C6G U7C U10C C22A | 3.06 |
| G5C C6G U7C U10C C22G | 3.75 |
| G5C C6G U7C U10C C22U | 3.4 |
| G5C C6G U7C U10C A39C | 1.45 |
| G5C C6G U7C U10C A39G | 2.45 |
| G5C C6G U7C U10C A39U | 0.26 |
| G5C C6G U7C U10C C36A A37G | 2.14 |
| G5C C6G U7C U10C C36A A37U | 2.07 |
| G5C C6G U7C U10C C36A A37C | 3.59 |
| G5C C6G U7C U10C G11A G12U | 1.83 |
| G5C C6G U7C U10C G11A G12A | 1.91 |
| G5C C6G U7C U10C G11A G12C | 1.51 |
| G5C C6G U7C U10C A23C | 2.88 |
| G5C C6G U7C U10C A23U | 2.51 |
| G5C C6G U7C U10C A23G | 3.57 |
| G5C C6G U7C U10C A39U A40C | 3.55 |

| Variant | exon inclusion enrichment index |
| --- | --- |
| G5C C6G U7C U10C A39U A40U | 1.88 |
| G5C C6G U7C U10C A39U A40G | 1.59 |
| G5C C6G U7C U10C G26C U27C | 4.24 |
| G5C C6G U7C U10C G26C U27A | 3.33 |
| G5C C6G U7C U10C G26C U27G | 4.43 |
| G5C C6G U7C U10C A25C G26A | 4.67 |
| G5C C6G U7C U10C A25C G26C | 4.35 |
| G5C C6G U7C U10C A25C G26U | 4.06 |
| G5C C6G U7C U10C A47G G48C | 2.32 |
| G5C C6G U7C U10C A47G G48A | 2.55 |
| G5C C6G U7C U10C A47G G48U | 0.733 |
| G5C C6G U7C U10C A14G G15U | 1.21 |
| G5C C6G U7C U10C A14G G15A | 2.07 |
| G5C C6G U7C U10C A14G G15C | 1.64 |
| G5C C6G U7C U10C C18G C19U | 1.44 |
| G5C C6G U7C U10C C18G C19A | 4.24 |
| G5C C6G U7C U10C C18G C19G | 4.32 |
| G5C C6G U7C U10C A30G A31G | 1.71 |
| G5C C6G U7C U10C A30G A31C | 0.674 |
| G5C C6G U7C U10C A30G A31U | 1.7 |
| G5C C6G U7C U10C G13C A14G | 1.61 |
| G5C C6G U7C U10C G13C A14C | 1.79 |
| G5C C6G U7C U10C G13C A14U | 1.88 |
| G5C C6G U7C U10C A45U | 4.56 |

| Variant | exon inclusion enrichment index |
| --- | --- |
| G5C C6G U7C U10C A45G | 5.32 |
| G5C C6G U7C U10C A45C | 3.17 |
| G5C C6G U7C U10C A40C | 3.66 |
| G5C C6G U7C U10C A40G | 3.16 |
| G5C C6G U7C U10C A40U | 2.71 |
| G5C C6G U7C U10C A30U | 3.07 |
| G5C C6G U7C U10C A30G | 3.89 |
| G5C C6G U7C U10C A30C | 3.57 |
| G5C C6G U7C U10C G15U C16A | 3.58 |
| G5C C6G U7C U10C G15U C16G | 4.02 |
| G5C C6G U7C U10C G15U C16U | 3.3 |
| G5C C6G U7C U10C C44A A45G | 5.42 |
| G5C C6G U7C U10C C44A A45U | 5.86 |
| G5C C6G U7C U10C C44A A45C | 4.3 |
| G5C C6G U7C U10C C44U A45G | 2.53 |
| G5C C6G U7C U10C C44U A45C | 4.13 |
| G5C C6G U7C U10C C44U A45U | 2.84 |
| G5C C6G U7C U10C C36U A37G | 2.77 |
| G5C C6G U7C U10C C36U A37U | 2.2 |
| G5C C6G U7C U10C C36U A37C | 2.78 |
| G5C C6G U7C U10C G15U | 3.45 |
| G5C C6G U7C U10C G15A | 2.71 |
| G5C C6G U7C U10C G15C | 3.44 |
| G5C C6G U7C U10C G21A C22U | 1.87 |

| Variant | exon inclusion enrichment index |
| --- | --- |
| G5C C6G U7C U10C G21A C22G | 3.81 |
| G5C C6G U7C U10C G21A C22A | 1.7 |
| G5C C6G U7C U10C C22A A23C | 3.98 |
| G5C C6G U7C U10C C22A A23U | 2.83 |
| G5C C6G U7C U10C C22A A23G | 3.83 |
| G5C C6G U7C U10C G11U | 3.33 |
| G5C C6G U7C U10C G11C | 2.92 |
| G5C C6G U7C U10C G11A | 2.79 |
| G5C C6G U7C U10C A40U G41C | 3.11 |
| G5C C6G U7C U10C A40U G41U | 2.15 |
| G5C C6G U7C U10C A40U G41A | 0.26 |
| G5C C6G U7C U10C G15A C16U | 3.21 |
| G5C C6G U7C U10C G15A C16G | 3.04 |
| G5C C6G U7C U10C G15A C16A | 3.14 |
| G5C C6G U7C U10C G12C G13C | 0.519 |
| G5C C6G U7C U10C G12C G13A | 0.8 |
| G5C C6G U7C U10C G12C G13U | 0.128 |
| G5C C6G U7C U10C A35C C36G | 2.6 |
| G5C C6G U7C U10C A35C C36U | 0.625 |
| G5C C6G U7C U10C A35C C36A | 2.13 |
| G5C C6G U7C U10C G15C C16G | 3.66 |
| G5C C6G U7C U10C G15C C16A | 3.23 |
| G5C C6G U7C U10C G15C C16U | 3.37 |
| G5C C6G U7C U10C G26C | 3.97 |

| Variant | exon inclusion enrichment index |
| --- | --- |
| G5C C6G U7C U10C G26U | 3.19 |
| G5C C6G U7C U10C G26A | 4.41 |
| G5C C6G U7C U10C A25G | 5.05 |
| G5C C6G U7C U10C A25C | 4.98 |
| G5C C6G U7C U10C A25U | 3.84 |
| G5C C6G U7C U10C G28C A29C | 2.81 |
| G5C C6G U7C U10C G28C A29G | 4.75 |
| G5C C6G U7C U10C G28C A29U | 2.35 |
| G5C C6G U7C U10C A37C G38C | 2.99 |
| G5C C6G U7C U10C A37C G38A | 2.71 |
| G5C C6G U7C U10C A37C G38U | 2.1 |
| G5C C6G U7C U10C G21U C22A | 1.73 |
| G5C C6G U7C U10C G21U C22G | 3.57 |
| G5C C6G U7C U10C G21U C22U | 1.36 |
| G5C C6G U7C U10C C24G | 4.23 |
| G5C C6G U7C U10C C24A | 3.28 |
| G5C C6G U7C U10C C24U | 1.76 |
| G5C C6G U7C U10C A20G G21U | 2.65 |
| G5C C6G U7C U10C A20G G21C | 2.95 |
| G5C C6G U7C U10C A20G G21A | 3.62 |
| G5C C6G U7C U10C C19A A20G | 0.953 |
| G5C C6G U7C U10C C19A A20C | 2.85 |
| G5C C6G U7C U10C C19A A20U | 1.52 |
| G5C C6G U7C U10C A20C G21U | 2.17 |

| Variant | exon inclusion enrichment index |
| --- | --- |
| G5C C6G U7C U10C A20C G21A | 1.97 |
| G5C C6G U7C U10C A20C G21C | 2.03 |
| G5C C6G U7C U10C G28U | 1.05 |
| G5C C6G U7C U10C G28A | 1.63 |
| G5C C6G U7C U10C G28C | 2.68 |
| G5C C6G U7C U10C A25U G26A | 3.89 |
| G5C C6G U7C U10C A25U G26U | 3.03 |
| G5C C6G U7C U10C A25U G26C | 3.41 |
| G5C C6G U7C U10C C16U U17C | 2.87 |
| G5C C6G U7C U10C C16U U17A | 3.78 |
| G5C C6G U7C U10C C16U U17G | 3.07 |
| G5C C6G U7C U10C A25G G26C | 4.8 |
| G5C C6G U7C U10C A25G G26A | 5.6 |
| G5C C6G U7C U10C A25G G26U | 4.09 |
| G5C C6G U7C U10C G12A G13U | 0.589 |
| G5C C6G U7C U10C G12A G13A | 1.51 |
| G5C C6G U7C U10C G12A G13C | 1.55 |
| G5C C6G U7C U10C A29G A30G | 3.01 |
| G5C C6G U7C U10C A29G A30U | 1.79 |
| G5C C6G U7C U10C A29G A30C | 2.29 |
| G5C C6G U7C U10C C19G A20C | 2.89 |
| G5C C6G U7C U10C C19G A20U | 3.16 |
| G5C C6G U7C U10C C19G A20G | 2.13 |
